Legend:
[1] = target: T1, human AXL expressed on the cell surface of tumor cell lines (human, UniProt P30530 26-894); assay: flow cytometry on H292 cells, one site-specific binding with Hill slope
T1 construct: whole, on cells; also called cell surface-expressed AXL; cell-based AXL
T1 sequence (looked up): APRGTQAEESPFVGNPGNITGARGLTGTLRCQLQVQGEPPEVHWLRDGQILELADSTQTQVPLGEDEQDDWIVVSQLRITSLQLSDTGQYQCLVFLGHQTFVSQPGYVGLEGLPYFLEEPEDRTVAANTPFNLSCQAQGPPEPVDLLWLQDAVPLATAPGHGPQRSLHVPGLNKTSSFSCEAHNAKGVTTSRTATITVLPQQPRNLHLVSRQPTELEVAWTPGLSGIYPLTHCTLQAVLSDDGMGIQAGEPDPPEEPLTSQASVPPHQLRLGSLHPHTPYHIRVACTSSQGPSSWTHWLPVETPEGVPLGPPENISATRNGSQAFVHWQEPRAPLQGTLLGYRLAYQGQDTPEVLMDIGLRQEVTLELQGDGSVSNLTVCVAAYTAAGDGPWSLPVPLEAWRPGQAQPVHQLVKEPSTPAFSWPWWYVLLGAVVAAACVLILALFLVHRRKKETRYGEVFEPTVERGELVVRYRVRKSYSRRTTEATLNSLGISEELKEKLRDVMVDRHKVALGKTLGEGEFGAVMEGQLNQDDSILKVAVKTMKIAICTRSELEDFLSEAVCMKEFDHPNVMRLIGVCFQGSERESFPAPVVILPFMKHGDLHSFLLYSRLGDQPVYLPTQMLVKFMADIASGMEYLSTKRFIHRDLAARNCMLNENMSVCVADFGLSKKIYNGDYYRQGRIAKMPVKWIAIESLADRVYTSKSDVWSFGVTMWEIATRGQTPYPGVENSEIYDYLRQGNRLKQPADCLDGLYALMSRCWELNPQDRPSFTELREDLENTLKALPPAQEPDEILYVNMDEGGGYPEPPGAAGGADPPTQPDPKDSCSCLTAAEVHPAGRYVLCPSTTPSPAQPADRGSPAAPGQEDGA
Method: Detection of antibody binding to surface AXL by flow cytometry. Prior to analysis, cells were plated such that they were not more than 80% confluent on the day of analysis. Cells were washed in PBS and harvested by the addition of cell dissociation buffer (Sigma). A cell suspension containing 2.5×10⁵ cells (in 500 μl corresponding cell culture media) was incubated with various concentrations (0.01-10 nM) of anti-AXL antibodies for 2 h at 4° C. (to prevent internalization). Following one wash with cell culture media, primary antibody was incubated with 2 μg DYLIGHT™ 488 conjugated AffiniPure goat anti-mouse IgG Alexa 488 secondary antibody (Jackson ImmunoResearch) in 100 μl of media for 1 h at 4° C. Prior to analysis, cell pellets were re-suspended in 300-500 μl media and filtered through a 50 μm nylon mesh filter to remove cell aggregates. Flow cytometry analyses were performed on 10,000 viable cells gated on forward scattering, side scattering parameters and propidium iodide dye exclusion using a BD LSRII flow Cytometer (Becton-Dickinson Biosciences, CA, USA) and a standard filter set using BD FACSDiva™ acquisition software, according to manufacturer's instructions.
Specific detection of antibody binding was calculated as the mean fluorescent intensity of binding to each primary antibody after background level subtraction of the mean fluorescent intensity of binding in the absence of primary antibody (but containing detection antibody). Binding parameters Bmax, (maximum fluorescence signal at receptor saturation), and KD (apparent cell binding constant) were then determined using a One site—Specific binding with Hill slope model in GraphPad Prism v 6.0.

rhTyro-3 = target: T2, rhTyro-3 (human, UniProt Q06418 41-429); assay: ELISA on coated antigen
T2 construct: extracellular domain
T2 sequence (looked up): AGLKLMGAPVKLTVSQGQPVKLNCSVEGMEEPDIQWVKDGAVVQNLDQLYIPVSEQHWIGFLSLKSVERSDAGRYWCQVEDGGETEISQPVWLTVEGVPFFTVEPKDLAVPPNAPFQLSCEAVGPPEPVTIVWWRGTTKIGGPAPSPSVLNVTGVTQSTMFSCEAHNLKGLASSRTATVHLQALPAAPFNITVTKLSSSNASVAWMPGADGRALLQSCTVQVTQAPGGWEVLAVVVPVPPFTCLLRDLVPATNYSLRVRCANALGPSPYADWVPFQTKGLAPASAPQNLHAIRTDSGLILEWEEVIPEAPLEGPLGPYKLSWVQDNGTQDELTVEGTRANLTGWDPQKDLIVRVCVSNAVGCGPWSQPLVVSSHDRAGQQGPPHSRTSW
Method: (§1) To evaluate the cross-reactivity of the mAb to other members of the TAM receptor tyrosine kinase subfamily, binding of the mAb to rhAXL-ECD, rhMER-ECD, rhTyro-3 and BSA (negative control) was measured by ELISA. 96-w half-area plates (Costar) were coated with 25 μl of rhAXL-ECD, rhMER-ECD, rhTyro-3 or BSA at 5 μg/ml in PBS and incubated overnight at 4° C. Microplates were washed 3 times with PBS, blocked with PBS-BSA 1%, and 25 μl of a 10 μg/ml diluted in PBS-BSA 1% were added and incubated at 37° C., 5% CO₂ for 2 hours. Plates were washed 4 times with PBS-TWEEN™ 20 0.05% and incubated for one hour at 37° C., 5% CO₂ with 25 μl of secondary antibody alkaline phosphatase conjugated F(ab)′2 goat anti-mouse IgG (H+L) (Jackson Immunoresearch) diluted 1/5000 in blocking buffer. After 4 washes with PBS-Tween 20 0.05%, 25 μl of a 1 mg/ml pN PP substrate solution was added and further incubated for one hour at 37° C. OD405 nm measurements were done using a microplate reader (Spectramax 340 PC, Molecular Devices).

rhMER-ECD = target: T3, rhMER-ECD (human, UniProt Q12866 21-505); assay: ELISA on coated antigen
T3 construct: extracellular domain
T3 sequence (looked up): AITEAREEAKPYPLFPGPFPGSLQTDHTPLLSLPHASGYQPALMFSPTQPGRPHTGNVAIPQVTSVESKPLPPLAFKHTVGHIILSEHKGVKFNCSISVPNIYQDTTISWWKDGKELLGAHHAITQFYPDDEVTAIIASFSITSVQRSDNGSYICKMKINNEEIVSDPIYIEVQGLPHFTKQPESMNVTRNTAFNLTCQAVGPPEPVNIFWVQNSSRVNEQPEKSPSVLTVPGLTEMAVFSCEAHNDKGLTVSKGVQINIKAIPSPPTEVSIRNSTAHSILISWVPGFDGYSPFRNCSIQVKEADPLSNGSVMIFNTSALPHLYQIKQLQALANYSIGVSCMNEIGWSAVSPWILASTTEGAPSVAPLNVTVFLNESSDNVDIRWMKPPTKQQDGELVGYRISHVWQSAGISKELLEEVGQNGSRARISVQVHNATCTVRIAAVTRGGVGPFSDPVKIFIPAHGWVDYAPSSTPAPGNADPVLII
Method: as §1

BSA = target: T4, BSA (UniProt P02769 25-607); assay: ELISA on coated antigen
T4 construct: also called BSA (negative control)
T4 sequence (P02769 25-607 limits assumed): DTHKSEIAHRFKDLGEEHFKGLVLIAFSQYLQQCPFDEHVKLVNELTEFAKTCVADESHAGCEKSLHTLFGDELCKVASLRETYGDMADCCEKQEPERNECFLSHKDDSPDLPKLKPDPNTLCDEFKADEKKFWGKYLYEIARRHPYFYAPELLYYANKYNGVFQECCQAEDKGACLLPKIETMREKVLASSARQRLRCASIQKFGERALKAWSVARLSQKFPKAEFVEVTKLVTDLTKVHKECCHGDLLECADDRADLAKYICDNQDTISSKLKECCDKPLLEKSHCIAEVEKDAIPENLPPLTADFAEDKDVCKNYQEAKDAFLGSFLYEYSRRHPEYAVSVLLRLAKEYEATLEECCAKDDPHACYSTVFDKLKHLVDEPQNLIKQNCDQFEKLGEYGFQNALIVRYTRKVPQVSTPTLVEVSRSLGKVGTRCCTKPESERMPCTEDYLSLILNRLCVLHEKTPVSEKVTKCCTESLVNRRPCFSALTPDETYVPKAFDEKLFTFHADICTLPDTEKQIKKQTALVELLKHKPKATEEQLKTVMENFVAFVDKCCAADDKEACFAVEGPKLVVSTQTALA
Method: as §1

B1: F107-8D12 (antibody, V domains shown)
VH: QVQLQQPGAELVKPGASVQLSCKASGYTFISFWINWVKQRPGQGLEWMGNIFPGSSSTNYNEKFKSKATLTVDKSSSTAYMQLSSLTSEDSAVYFCARDYYGGSPDYWGQGTTLTVSS
VL: DIVMSQSPSSLAVSAGERVTMSCKSSQSLLNTRTRKNYLAWYQQKPGQSPKLLIYWASTRESGVPDRFTGSGSGTDFTLTISSVQAEDLAVYYCKQSYNLWTFGGGTKLEIK
notes: also called F107-8D12-2; mAb 8D12
B1 was tested, and the Bmax [1] was 1310 MFI, the binding result (rhTyro-3) was “no binding (tested: 10 µg/ml)” and the binding result (rhMER-ECD) was “no binding (tested: 10 µg/ml)”. B1: no binding (tested: 10 µg/ml) (BSA).

B2: F107-7H5 (antibody, V domains shown)
VH: QVQLQQPGAELVKPGASVKLSCKASGYTFTSYWINWVKQRPGQGLEWIGNIYPDSSSTNYNEKFKSKATLTVDKSSTTAYIQFSSLTSEDSAVYYCTRDTYGGSPDYWGQGTTLTVSS
VL: DIVMSQSPSSLAVSAGEKVTMSCKSSQSLLNSRTRKIYLAWYQQKPGQSPKLLIYWASTRQSGVPDRFTGSGSGTDFTLTISSVQAEDLAVYYCKQSYNLWTFGGGTKLEIK
notes: also called F107-7H5-2; mAb 7H5
For B2, the Bmax [1] was 1430 MFI, the binding result (rhTyro-3) was “no binding (tested: 10 µg/ml)” and the binding result (rhMER-ECD) was “no binding (tested: 10 µg/ml)”. B2: no binding (tested: 10 µg/ml) (BSA).

B3: F107-10G1 (antibody, V domains shown)
VH: EVNLVESGGGVVKPGASLKLSCEASGFTFSNYGMSWVRQTSDKRLEWVASISGGGGRTYYLDNVKGRFIISRENAKNTLYLQMSSLKSEDTALFYCARGARASYFAMDYWGQGSSVTVSS
VL: VIVMTQSHKFMSTSVGDRVSITCKASQDVTTAVAWYQQKPGQSPKLLIYWASTRHTGVPDRFTGSGSGTDYSLTISNVQTEDLAFYYCQQHFTTPLTFGAGTKLELK
notes: also called F107-10G1-3
For B3, the Bmax [1] was 937 MFI, the binding result (rhTyro-3) was “no binding (tested: 10 µg/ml)” and the binding result (rhMER-ECD) was “no binding (tested: 10 µg/ml)”. B3: no binding (tested: 10 µg/ml) (BSA).

B4: F111-3C8 (antibody, V domains shown)
VH: QVQLQQPGAELGKPGTSVKLSCKASGYTFTSYWMHWVKRVPGQGLEWIGNINPNSTSADYNEKFKRKATLTVDKSSSTAYMQLSTLTSEDSAVYYCTRPLMGPYWYFDVWGTGTTVTVSS
VL: QIVLTQSPAIMSASPGEKVTISCSASSSVSYMYWYQQKPGSSPKPWIYRTSNLASGVPARFSGSGSGTSYSLTISSMEAEDAATYYCQQYHNYPPTFGGGTKLEIK
notes: also called F111-3C8-2
With B4 the Bmax [1] was 1480 MFI, the binding result (rhTyro-3) was “no binding (tested: 10 µg/ml)” and the binding result (rhMER-ECD) was “no binding (tested: 10 µg/ml)”. B4: no binding (tested: 10 µg/ml) (BSA).

B5: F111-5E9 (antibody, V domains shown)
VH: QIQLVQSGPELKKPGETVKISCKASGYTFTKYGMNWVKQAPGKGLKWMGWINTYTGEPTYADDFKGRFAFSLETSASTAYLQINNLTTEDMVTYFCAKGGYYSNPIYPMDYWGQGTSVTVSS
VL: DIQMTQTTSSLSASLGDRVTISCRASQDINNYLNWYQQKPDGTVKLLIYYISRLHSGVPSRFSGSGSGTDYSLTISNLELEDVATYFCQQGNTLPFTFGSGTKLEIK
notes: also called F111-5E9-2; mAb 5E9
In the case of B5, the Bmax [1] is reported as 1150 MFI, the binding result (rhTyro-3) is reported as “no binding (tested: 10 µg/ml)” and the binding result (rhMER-ECD) is reported as “no binding (tested: 10 µg/ml)”. B5: no binding (tested: 10 µg/ml) (BSA).

— patent US20240076389A1 (NATIONAL RESEARCH COUNCIL OF CANADA, published 2024)
